Results reported in IntAct's records for PubMed 18976803.

B1: Protein LDB19 (Saccharomyces cerevisiae), Q12502 (parent)
chain: MAFSRLTSTHQSNHNGYSNSNKKGQSLPLTLSIDVESPPCVLYGSAMESSGAVLSGLFTVTVVDPYSSAEDKSLKNTESNVSTTSKSLKRKSTFGSALSSRLSSLSASTSNISPSTSSTSISHSPTPANLRIMAGYTKITITSVTLSLVQKIHFHKPFVPNISSMQTCMNCKTKITNMKSWEIQSNTQDLSVGSHSYPFSYLIPGSVPCSSSLGATAETQVKYELIAVVTYIDPHRNSFSSGHSTPRKEGSSSKKRLLQLAMPIAVTRSIPRGPDKNSLRVFPPTELTAAAVLPNVVYPKSTFPLEMKLDGVSSGDRRWRMRKLSWRIEETTRVKAHACPVHKHELRQLEEQVKIKESEKSKKPRSHIKRYGELGPQIRVAVNSLENMPSQRLPGEPGREQAPNSSGPASTGNVGLDDENPVNEDEEDQPGSEFIHPSDDALRQELLMQQQRARQQQLQQELKNNSSLFTEEVRIISKGEMKSGWKTDFDNNGKIELVTEIDCMGLNSGVSNPVMHASTLQTPSTGNKKPSINVACDIQDPNLGLYVSHILAVEIVVAEETLQYANGQPIRKPNSKNKKETNNNTMNVHNPDQRLAELSPIFANRNTPKVRRMGPEDITPVNSNKSNHSTNKEKASNGASNSNIVSVPTGAARVLRMQFRLTVTERSGLGISWDEEVPPIYQDVELLSPPCYELSINNGIKNKLYSTMSTPVRSEDDFVGGSDEDIGNYESQGLEPGPNVQEVTITQNKLTIPPTAHHYQPASSSQRSLTTVQSPPLESVVSVQGSVPFRGHVLTPHSTRDIRIQNFSDFLDSNRITQ

Variants of: B1
Details: with rsp5_yeast RSP5, P39940
Sequence of rsp5_yeast RSP5, P39940 (P39940 whole entry): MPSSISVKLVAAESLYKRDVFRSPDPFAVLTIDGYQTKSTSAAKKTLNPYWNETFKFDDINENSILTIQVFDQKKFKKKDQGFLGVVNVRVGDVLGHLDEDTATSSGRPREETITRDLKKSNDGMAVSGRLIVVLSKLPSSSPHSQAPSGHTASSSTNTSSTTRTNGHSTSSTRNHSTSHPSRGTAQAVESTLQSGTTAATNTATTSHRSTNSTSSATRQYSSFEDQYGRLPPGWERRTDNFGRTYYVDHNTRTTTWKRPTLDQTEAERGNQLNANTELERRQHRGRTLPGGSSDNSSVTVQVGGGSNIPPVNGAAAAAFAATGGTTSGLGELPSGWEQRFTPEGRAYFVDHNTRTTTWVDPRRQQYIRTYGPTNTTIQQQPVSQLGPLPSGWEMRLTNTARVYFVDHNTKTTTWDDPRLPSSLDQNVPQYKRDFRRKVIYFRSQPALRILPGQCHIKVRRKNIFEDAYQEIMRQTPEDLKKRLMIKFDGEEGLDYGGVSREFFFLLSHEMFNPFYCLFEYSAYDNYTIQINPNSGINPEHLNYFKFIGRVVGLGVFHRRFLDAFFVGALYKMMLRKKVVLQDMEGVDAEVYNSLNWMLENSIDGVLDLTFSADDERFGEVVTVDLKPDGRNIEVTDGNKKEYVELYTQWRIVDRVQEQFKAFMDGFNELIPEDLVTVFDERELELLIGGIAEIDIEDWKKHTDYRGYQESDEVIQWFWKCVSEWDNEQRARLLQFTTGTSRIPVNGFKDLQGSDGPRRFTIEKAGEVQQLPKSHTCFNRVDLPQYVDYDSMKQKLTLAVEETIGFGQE

effect of a mutation on the interaction | Variant
decreasing interaction | P690A;Y692A
decreasing interaction | P679A;Y681A
